This is an account of results in article PMC2169462 (The Journal of Cell Biology, 2001).

For the experiment, the target named is His6-tagged human RanGTP Q69L (human, UniProt P62826 1-216, Q69L). Nature of the experiment: pull-down.

B1: recombinant Kap121p (natural protein)
chain: MSALPEEVNRTLLQIVQAFASPDNQIRSVAEKALSEEWITENNIEYLLTFLAEQAAFSQDTTVAALSAVLFRKLALKAPPSSKLMIMSKNITHIRKEVLAQIRSSLLKGFLSERADSIRHKLSDAIAECVQDDLPAWPELLQALIESLKSGNPNFRESSFRILTTVPYLITAVDINSILPIFQSGFTDASDNVKIAAVTAFVGYFKQLPKSEWSKLGILLPSLLNSLPRFLDDGKDDALASVFESLIELVELAPKLFKDMFDQIIQFTDMVIKNKDLEPPARTTALELLTVFSENAPQMCKSNQNYGQTLVMVTLIMMTEVSIDDDDAAEWIESDDTDDEEEVTYDHARQALDRVALKLGGEYLAAPLFQYLQQMITSTEWRERFAAMMALSSAAEGCADVLIGEIPKILDMVIPLINDPHPRVQYGCCNVLGQISTDFSPFIQRTAHDRILPALISKLTSECTSRVQTHAAAALVNFSEFASKDILEPYLDSLLTNLLVLLQSNKLYVQEQALTTIAFIAEAAKNKFIKYYDTLMPLLLNVLKVNNKDNSVLKGKCMECATLIGFAVGKEKFHEHSQELISILVALQNSDIDEDDALRSYLEQSWSRICRILGDDFVPLLPIVIPPLLITAKATQDVGLIEEEEAANFQQYPDWDVVQVQGKHIAIHTSVLDDKVSAMELLQSYATLLRGQFAVYVKEVMEEIALPSLDFYLHDGVRAAGATLIPILLSCLLAATGTQNEELVLLWHKASSKLIGGLMSEPMPEITQVYHNSLVNGIKVMGDNCLSEDQLAAFTKGVSANLTDTYERMQDRHGDGDEYNENIDEEEDFTDEDLLDEINKSIAAVLKTTNGHYLKNLENIWPMINTFLLDNEPILVIFALVVIGDLIQYGGEQTASMKNAFIPKVTECLISPDARIRQAASYIIGVCAQYAPSTYADVCIPTLDTLVQIVDFPGSKLEENRSSTENASAAIAKILYAYNSNIPNVDTYTANWFKTLPTITDKEAASFNYQFLSQLIENNSPIVCAQSNISAVVDSVIQALNERSLTEREGQTVISSVKKLLGFLPSSDAMAIFNRYPADIMEKVHKWFA
Turning to B1, the binding result is given as “binds”.

B2: recombinant Kap95p (natural protein)
chain: MSTAEFAQLLENSILSPDQNIRLTSETQLKKLSNDNFLQFAGLSSQVLIDENTKLEGRILAALTLKNELVSKDSVKTQQFAQRWITQVSPEAKNQIKTNALTALVSIEPRIANAAAQLIAAIADIELPHGAWPELMKIMVDNTGAEQPENVKRASLLALGYMCESADPQSQALVSSSNNILIAIVQGAQSTETSKAVRLAALNALADSLIFIKNNMEREGERNYLMQVVCEATQAEDIEVQAAAFGCLCKIMSLYYTFMKPYMEQALYALTIATMKSPNDKVASMTVEFWSTICEEEIDIAYELAQFPQSPLQSYNFALSSIKDVVPNLLNLLTRQNEDPEDDDWNVSMSAGACLQLFAQNCGNHILEPVLEFVEQNITADNWRNREAAVMAFGSIMDGPDKVQRTYYVHQALPSILNLMNDQSLQVKETTAWCIGRIADSVAESIDPQQHLPGVVQACLIGLQDHPKVATNCSWTIINLVEQLAEATPSPIYNFYPALVDGLIGAANRIDNEFNARASAFSALTTMVEYATDTVAETSASISTFVMDKLGQTMSVDENQLTLEDAQSLQELQSNILTVLAAVIRKSPSSVEPVADMLMGLFFRLLEKKDSAFIEDDVFYAISALAASLGKGFEKYLETFSPYLLKALNQVDSPVSITAVGFIADISNSLEEDFRRYSDAMMNVLAQMISNPNARRELKPAVLSVFGDIASNIGADFIPYLNDIMALCVAAQNTKPENGTLEALDYQIKVLEAVLDAYVGIVAGLHDKPEALFPYVGTIFQFIAQVAEDPQLYSEDATSRAAVGLIGDIAAMFPDGSIKQFYGQDWVIDYIKRTRSGQLFSQATKDTARWAREQQKRQLSL
Regarding B2, the binding result is on record as “binds”.
